# Like-named read-outs stand apart in the source and are kept apart here.
# Experiments:
# [1] = target: T1, Human IL-33 (Axxora/Adipogen AG-40B-0038) (human, UniProt O95760 112-270, limits assumed); assay: cell-based or functional assay
# T1 sequence (looked up): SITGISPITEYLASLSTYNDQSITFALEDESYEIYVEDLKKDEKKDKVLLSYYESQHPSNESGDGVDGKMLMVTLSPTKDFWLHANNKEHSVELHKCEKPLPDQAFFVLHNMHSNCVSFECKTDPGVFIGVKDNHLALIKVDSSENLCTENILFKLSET
# [2] = target: T1, Human IL-33 (Axxora/Adipogen …); assay: cell-based or functional assay; remark: listed apart in the source
# [3] = target: T1, Human IL-33 (Axxora/Adipogen …); assay: cell-based or functional assay; remark: listed apart in the source
# His10/Avi Human IL33-01 [4] = target: T2, His10/Avi Human IL33-01 (human); assay: HTRF epitope competition, IgG titrated; competitor DyLight labelled 33_640117 IgG; 1 hour
# T2 construct: Wild type mature IL-33 with N-terminal 10xHis, Avitag and Factor Xa site; biotinylated by BirA on the Avitag where used biotinylated; reduced form unless treated; also called N-terminal His Avi IL-33; His-Avi human IL-33 wild type
# T2 chain: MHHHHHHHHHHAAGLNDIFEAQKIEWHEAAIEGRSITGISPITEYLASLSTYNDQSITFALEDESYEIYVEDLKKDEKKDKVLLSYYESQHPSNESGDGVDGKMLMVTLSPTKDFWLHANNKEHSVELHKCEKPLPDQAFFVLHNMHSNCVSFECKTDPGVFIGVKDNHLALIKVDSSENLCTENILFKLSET
# Experimental: (§1) As the epitope competition assay utilising 33_640027 reached its limit of sensitivity, an assay using 33_640117 was used for testing purified scFv samples. The assay was essentially as described for the 33v20064 competition assay with the following modifications: 2.5 nM DyLight labelled 33_640117 was prepared and 2.5 microlitres added to the assay plates. This was followed by the addition of 2.5 microlitres of a solution containing 0.12 nM biotinylated human IL-33-01 combined with 0.75 nM streptavidin cryptate detection (Cisbio International, 610SAKLB) for the human assay or a solution containing 0.24 nM biotinylated cynomolgus IL-33 combined with 1.5 nM streptavidin cryptate detection (Cisbio International, 610SAKLB) for the cynomolgus assay. Fluorescence was read after one hour and overnight incubation.
# (§2) The ability of anti-IL-33 antibodies to inhibit the binding of biotinylated His Avi human IL-33 or cynomolgus His Avi IL-33 to the DyLight labelled 33_640117 IgG was assessed in a biochemical HTRF® (Homogeneous Time-Resolved Fluorescence, Cisbio International) competition assays as described above.
# His10/Avi Cyno IL-33 = target: T3, His10/Avi Cyno IL-33 (cynomolgus monkey); assay: as above
# T3 construct: also called Cynomolgus 10His Avitag IL-33; biotinylated His Avi cynomolgus IL-33
# T3 chain: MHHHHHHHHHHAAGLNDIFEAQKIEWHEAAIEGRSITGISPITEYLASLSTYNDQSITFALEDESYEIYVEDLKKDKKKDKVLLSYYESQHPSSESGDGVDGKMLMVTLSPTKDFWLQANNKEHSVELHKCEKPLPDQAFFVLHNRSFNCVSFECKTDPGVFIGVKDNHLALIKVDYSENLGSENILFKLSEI
# Experimental: as §1, §2
# His10/Avi Human IL33-01 [5] = target: T2, His10/Avi Human IL33-01; assay: HTRF epitope competition, IgG titrated; competitor DyLight labelled 33_640117 IgG; overnight
# Experimental: as §1, §2
# His10/Avi Human IL33-01 [6] = target: T2, His10/Avi Human IL33-01; assay: cell-based or functional assay
# [7] = target: T4, Full-length human IL-33 (amino acids 1-270), HEK293-EBNA cell lysate (human, UniProt O95760 1-270); assay: cell-based or functional assay
# T4 sequence (looked up): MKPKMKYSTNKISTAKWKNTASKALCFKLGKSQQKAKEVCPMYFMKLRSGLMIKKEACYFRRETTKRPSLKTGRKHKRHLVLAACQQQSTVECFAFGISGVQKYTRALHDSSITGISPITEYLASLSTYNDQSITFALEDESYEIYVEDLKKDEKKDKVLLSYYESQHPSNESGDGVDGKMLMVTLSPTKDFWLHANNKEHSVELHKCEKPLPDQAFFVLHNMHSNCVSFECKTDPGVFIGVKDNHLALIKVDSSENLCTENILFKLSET
# [8] = target: T5, Recombinant human IL-33 (construct not named in the example) (human, UniProt O95760 112-270, limits assumed); assay: SPR Biacore T100, 25 C, biotinylated human IL-33 on streptavidin C1 chip, Fab as analyte
# T5 construct: also called Recombinant, enzymatically biotinylated human IL-33 (produced in-house); IL-33 (200 nM)
# T5 sequence (looked up): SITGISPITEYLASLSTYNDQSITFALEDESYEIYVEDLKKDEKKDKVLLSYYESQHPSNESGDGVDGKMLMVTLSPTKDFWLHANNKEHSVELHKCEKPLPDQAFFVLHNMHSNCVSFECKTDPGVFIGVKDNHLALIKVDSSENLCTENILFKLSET
# Experimental: Fab fragments were generated by papain cleavage from full length IgG1 and purified by SEC. […] Streptavidin was covalently immobilised to a C1 chip surface using standard amine coupling techniques at a concentration of […] in 10 mM Sodium acetate pH 4.5. […] Recombinant, enzymatically biotinylated human IL-33 (produced in-house) was titrated onto the streptavidin chip surface at […] in HBS-EP+ buffer to enable ˜30 RUs of Fab binding at saturation (Rmax). This low level of analyte binding ensured minimal mass transport effects.
# The IL-33 Fab was serially diluted from 5 nM to 78 pM in HBS-EP+ buffer and flowed over the chip at 50 μl/min, with 3 minutes association and up to 30 minutes dissociation. Multiple buffer only injections were made under the same conditions to allow for double reference subtraction of the final sensorgram sets, which were analysed using the BiaEval software (version 2.0.1). The chip surface was fully regenerated with pulses of 3M MgCl₂.
binder,measurement,setting,value
"IL330377 IgG1 (antibody, V domains shown) VH: EVQLLESGGGLVQPGGSLRLSCAASGFTFSSYAMSWVRQAPGKGLEWVSASDMLYGSTYYADSVKGRFTISRDNSKNTLYLQMNSLRAEDTAVYYCSQNILGYFDSWGRGTLVTVSS VL: SYVLTQPPSVSVSPGQTARITCSGDALPKQYAHWYQQKPGQAPALVIYKDTERPSGIPERFSGSSSGTTVTLTISGVQAEDEADYYCQSADSTGYHRVFGGGTKVTVL","Huvec IL-6 production, maximum inhibition",[1],~70%
"IL330396_fgl IgG1 (antibody, V domains shown) VH: EVQLLESGGGLVQPGGSLRLSCAASGFTFSSYAMSWVRQAPGKGLEWVSASTPWQGSTYYADSVKGRFTISRDNSKNTLYLQMNSLRAEDTAVYYCVRWYWGWIDSWGRGTLVTVSS VL: SYELMQPPSVSVSPGQTARITCSGDALPKQYAHWYQQKPGQAPVLVIYKDTERPSGIPERFSGSSSGTTVTLTISGVQAEDEADYYCMSSDDTGASRVFGGGTKLTVL","IC50, Huvec IL-6 production",[2],2800 pM
same,"IC50, Mast cell IL-6 production",[2],1500 pM
"IL330388_fgl IgG1 (antibody, V domains shown) VH: EVQLLESGGGLVQPGGSLRLSCAASGFTFSSYAMSWVRQAPGKGLEWVSASTPWQGSTYYADSVKGRFTISRDNSKNTLYLQMNSLRAEDTAVYYCVRWYWGWIDSWGRGTLVTVSS VL: SYELMQPPSVSVSPGQTARITCSGDALPKQYAHWYQQKPGQAPVLVIYKDTERPSGIPERFSGSSSGTTVTLTISGVQAEDEADYYCMSSDPSGASRVFGGGTKLTVL","IC50, Huvec IL-6 production",[2],2100 pM
same,"IC50, Mast cell IL-6 production",[2],1200 pM
"IL330377_fgl IgG1 (antibody, V domains shown) VH: EVQLLESGGGLVQPGGSLRLSCAASGFTFSSYAMSWVRQAPGKGLEWVSASDMLYGSTYYADSVKGRFTISRDNSKNTLYLQMNSLRAEDTAVYYCSQNILGYFDSWGRGTLVTVSS VL: SYELMQPPSVSVSPGQTARITCSGDALPKQYAHWYQQKPGQAPVLVIYKDTERPSGIPERFSGSSSGTTVTLTISGVQAEDEADYYCQSADSTGYHRVFGGGTKLTVL","IC50, Huvec IL-6 production",[2],6600 pM
same,"IC50, Mast cell IL-6 production",[2],1300 pM
"IL330398_fgl IgG1 (antibody, V domains shown) VH: EVQLLESGGGLVQPGGSLRLSCAASGFTFSSYAMSWVRQAPGKGLEWVSASTPWQGSTYYADSVKGRFTISRDNSKNTLYLQMNSLRAEDTAVYYCVRWYWGWIDSWGRGTLVTVSS VL: SYELMQPPSVSVSPGQTARITCSGDALPKQYAHWYQQKPGQAPVLVIYKDTERPSGIPERFSGSSSGTTVTLTISGVQAEDEADYYCLSSDASGASRVFGGGTKLTVL","IC50, Huvec IL-6 production",[2],1500 pM
same,"IC50, Mast cell IL-6 production",[2],900 pM
"IL330398 IgG1 (antibody, V domains shown) VH: EVQLLESGGGLVQPGGSLRLSCAASGFTFSSYAMSWVRQAPGKGLEWVSASTPWQGSTYYADSVKGRFTISRDNSKNTLYLQMNSLRAEDTAVYYCVRWYWGWIDSWGRGTLVTVSS VL: SYVLTQPPSVSVSPGQTARITCSGDALPKQYAHWYQQKPGQAPALVIYKDTERPSGIPERFSGSSSGTTVTLTISGVQAEDEADYYCLSSDASGASRVFGGGTKVTVL","Huvec IL-6 production, maximum inhibition",[1],~70%
"IL330180 IgG (antibody, V domains shown) VH: not shown VL: QPVLTQPPSVSEAPRQRVTISCSGSSSNIGNNAVNWYQQLPGTAPKLLIYRNNQRPSGVPDRFSGSKSGTSASLAISGLRSEDEADYYCAAWDDSLSGWVFGGGTKVNVL","IC50, Mast cell IL-6 production",[3],22000 pM
"33_640081 IgG1 (antibody, V domains shown, IgG1; also called ZZ1JMB-H05) VH: EVQLLESGGGSVQPGGSLRLSCAASGFTFSSYAMNWVRQAPGKGLEWVSAISGSGGSTHYADSVKGRFTISRDNSKNTLYLQMNSLRAEDTAVYYCGRAKFMQLWGGGLRYPLGYWGQGTMVTVSS VL: SYVLTQPPSVSVSPGQTASITCSGERMGDKYAAWYQQKPGQSPVLVIYQDTKRPSGIPERFSGSNSGNTATLTISGTQATDEADYYCQVWAADDTGVFGGGTKVTVL",IC50,His10/Avi Human IL33-01 [4],300 pM
same,IC50,His10/Avi Cyno IL-33,10000 pM
same,IC50,His10/Avi Human IL33-01 [5],600 pM
"33_640237 IgG1 (antibody, V domains shown, IgG1; also called ZZ1M37-E06) VH: EVQLLESGGGLVQPGGSLRLSCAASGFTFSSYAMSWVRQAPGKGLEWVSGIADDFTSTYYADPVKGRFTISRDNSKNTLYLQMNSLRAEDTAVYYCARDLWMMNYAGGLRYPFGYWGQGTTVTVSS VL: SYVLTQPPSVSVSPGQTASITCSGERMGDKYAAWYQQKPGQSPVLVIYRDTKRPSGIPERFSGSNSGNTATLTISGTQAIDEADYYCGVLKQDTGVFGGGTKVTVL","IC50, Huvec IL-8 assay vs. His Avi IL-33",His10/Avi Human IL33-01 [6],56 pM
same,"IC50, Huvec IL-8 assay vs. full length IL-33 cell lysate",[7],91 pM
same,IC50,His10/Avi Human IL33-01 [4],100 pM
same,IC50,His10/Avi Cyno IL-33,1800 pM
same,IC50,His10/Avi Human IL33-01 [5],100 pM
"33_640001 Fab (Fab, V domains shown, Fab made by papain cleavage of full length IgG1) VH: not shown VL: SYVLTQPPSVSVSPGQTASITCSGERMGDKYAAWYQQKPGQSPVLVIYQDTKRPSGIPERFSGSNSGNTATLTISGTQAMDEADYYCQVWDSSTGVFGGGTKVTVL",Kd,[8],3340 pM
same,koff,[8],0.0326 s⁻¹
same,kon,[8],9.76e+06 M⁻¹ s⁻¹
"33_640087-7B Fab (Fab, V domains shown, Fab made by papain cleavage of full length IgG1) VH: EVQLLESGGGLVQPGGSLRLSCAASGFTFSSYAMSWVRQAPGKGLEWVSGISAIDQSTYYADSVKGRFTISRDNSKNTLYLQMNSLRAEDTAVYYCARQKFMQLWGGGLRYPFGYWGQGTMVTVSS VL: SYVLTQPPSVSVSPGQTASITCSGEGMGDKYAAWYQQKPGQSPVLVIYRDTKRPSGIPERFSGSNSGNTATLTISGTQAMDEADYYCGVIQDNTGVFGGGTKLTVL",Kd,[8],0.43 pM
same,koff,[8],9.42e-06 s⁻¹
same,kon,[8],2.2e+07 M⁻¹ s⁻¹
"33_640082-6 IgG1 (antibody, V domains shown, IgG1) VH: EVQLLESGGGLVQPGGSLRLSCAASGFTFSSYAMSWVRQAPGKGLEWVSGISGIDTSTYYADSVKGRFTISRDNSKNTLYLQMNSLRAEDTAVYYCARQKFMQLWGGGLRYPFGYWGQGTMVTVSS VL: SYVLTQPPSVSVSPGQTASITCSGERMGDKYAAWYQQKPGQSPVLVIYRDTKRPSGIPERFSGSNSGNTATLTISGTQAMDEADYYCGVLKQDTGVFGGGTKVTVL","IC50, Huvec IL-8 assay vs. His Avi IL-33",His10/Avi Human IL33-01 [6],30 pM
same,"IC50, Huvec IL-8 assay vs. full length IL-33 cell lysate",[7],97 pM
same,IC50,His10/Avi Human IL33-01 [4],100 pM
same,IC50,His10/Avi Cyno IL-33,200 pM
same,IC50,His10/Avi Human IL33-01 [5],100 pM
"33_640050 Fab (Fab, V domains shown, Fab made by papain cleavage of full length IgG1) VH: EVQLLESGGGLVQPGGSLRLSCAASGFTFSSYAMSWVRQAPGKGLEWVSAISGSGGSTYYADSVKGRFTISRDNSKNTLYLQMNSLRAEDTAVYYCPRHKFMQLWGGGLRYPFGYWGQGTMVTVSS VL: SYVLTQPPSVSVSPGQTASITCSGERMGDKYAAWYQQKPGQSPVLVIYQDTKRPSGIPERFSGSNSGNTATLTISGTQAMDEADYYCQVWDSSTGVFGGGTKVTVL",Kd,[8],3.4 pM
same,koff,[8],0.000105 s⁻¹
same,kon,[8],3.08e+07 M⁻¹ s⁻¹
